First the molecules themselves.
B1: SMG5 (parent)
chain: TNPDLIIVCAQSSQSLWNRLSVLL
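Also: lentivirally expressed fusions sorted by FACS into six bins by GFP to DsRed ratio, PSI derived from sequencing read proportions per bin multiplied by bin number.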

Variants of B1 are the subject of the data set. The experiment in a line: protein stability index of a GFP-peptide fusion (GPS, HEK-293T) (PSI 1-6); higher = more stable. The note with it: c terminus: a fixed tail appended.
On to TNPDLIIVGAQSSQSLWNRLSVLL, for which the protein stability index was found to be 1.45.
The same measure for TNPDLIIVEAQSSQSLWNRLSVLL: 1.72; for TNPDLIIVIAQSSQSLWNRLSVLL: 2.72; for TNPDLIIVYAQSSQSLWNRLSVLL: 1.56.
Under TNPDLIIVNAQSSQSLWNRLSVLL stands 2.35; under TNPDLIIVQAQSSQSLWNRLSVLL, 2.09; under TNPDLIIVMAQSSQSLWNRLSVLL, 1.76.
Under TNPDLIIVPAQSSQSLWNRLSVLL stands 1.92; under TNPDLIIVCAQSSQSLWNRKSVLL, 2.77.
As for TNPDLIIVCAQSSQSLWNRHSVLL, the protein stability index was found to be 1.7.
The same measure for TNPDLIIVCAQSSQSLWNRYSVLL: 2.11.
The same measure for TNPDLIIVCAQSSQSLWNRGSVLL: 2.45; for TNPDLIIVCAQSSQSLWNRFSVLL: 1.81.
As for TNPDLIIVCAQSSQSLWNRPSVLL, the protein stability index was 2.92.
For the variant TNPDLIIVCAQSSQSLWNRMSVLL, the protein stability index came out at 2.24.
Under TNPDLIIVCAQSSQSLWNRQSVLL stands 2.08; under TNPDLIIVCAGSSQSLWNRLSVLL, 2.09.
The same measure for TNPDLIIVCAPSSQSLWNRLSVLL: 3.62; for TNPDLIIVCAESSQSLWNRLSVLL: 1.32.
The same measure for TNPDLIIVCAWSSQSLWNRLSVLL: 1.54.
Consider TNPDLIIVCADSSQSLWNRLSVLL, for which the protein stability index turned out to be 3.08.
The same measure for TNPDLIIVCATSSQSLWNRLSVLL: 3.57; for TNPDLIIVCAQSSQSEWNRLSVLL: 2.42.
For TNPDLIIVCAQSSQSIWNRLSVLL, the protein stability index was determined as 2.02.
The same measure for TNPDLIIVCAQSSQSPWNRLSVLL: 3.37; for TNPDLIIVCAQSSQSDWNRLSVLL: 3.33.
Under TNPDLIIVCAQSSQSKWNRLSVLL stands 3.19.
On to TNPDLIIVCAQSSQSHWNRLSVLL, for which the protein stability index is 3.7.
Under TNPDLIIVCAQSSQSMWNRLSVLL stands 3.23; under TNPDLIIVCAQSSQSTWNRLSVLL, 3.24.
Under TNPDLIIVCAQSSQSSWNRLSVLL stands 2.53; under TNPDLIIVCAQSSQSRWNRLSVLL, 2.94.
Under TNPDLIIVCAQSSQSQWNRLSVLL stands 2.55.
For TNPDLIIVCAQSSQSLQNRLSVLL, the protein stability index was determined as 1.9.
Turning to TNPDLIIVCAQSSQSLMNRLSVLL, the protein stability index came out at 3.06.
Under TNPDLIIVCAQSSQSLYNRLSVLL stands 2.88.
Under TNPDLIIVCAQSSQSLDNRLSVLL stands 1.77; under TNPDLIIVCAQSSQSLINRLSVLL, 2.47.
The same measure for TNPDLIIVCAQSSQSLVNRLSVLL: 2.79; for TNPDLIIVCAQSSQSLSNRLSVLL: 3.57; for TNPDLIIVCAQSSQSLLNRLSVLL: 3.96.
TNLDLIIVCAQSSQSLWNRLSVLL: the protein stability index is 2.29.
The same measure for TNADLIIVCAQSSQSLWNRLSVLL: 3.05; for TNSDLIIVCAQSSQSLWNRLSVLL: 2.5.
The same measure for TNFDLIIVCAQSSQSLWNRLSVLL: 2.18; for TNVDLIIVCAQSSQSLWNRLSVLL: 4.46.
As to TNDDLIIVCAQSSQSLWNRLSVLL, the protein stability index was determined as 1.77.
Regarding TNEDLIIVCAQSSQSLWNRLSVLL, the protein stability index is 2.57.
Under TKPDLIIVCAQSSQSLWNRLSVLL stands 2.66.
Under TRPDLIIVCAQSSQSLWNRLSVLL stands 2.88.
Under TCPDLIIVCAQSSQSLWNRLSVLL stands 2.8; under TTPDLIIVCAQSSQSLWNRLSVLL, 4.22; under TYPDLIIVCAQSSQSLWNRLSVLL, 1.77.
For the variant TGPDLIIVCAQSSQSLWNRLSVLL, the protein stability index is 2.66.
For the variant TIPDLIIVCAQSSQSLWNRLSVLL, the protein stability index is 2.22.
Under TEPDLIIVCAQSSQSLWNRLSVLL stands 2.26; under THPDLIIVCAQSSQSLWNRLSVLL, 1.88; under TNPDLIIVCAQSSQSLWNRLSALL, 2.
The same measure for TNPDLIIVCAQSSQSLWNRLSKLL: 2.17; for TNPDLIIVCAQSSQSLWNRLSMLL: 2.98; for TNPDLIIVCAQSSQSLWNRLSWLL: 1.24.
The same measure for TNPDLIIVCAQSSQSLWNRLSPLL: 2.62; for TNPDLIIVCAQSSQSLWNRLSRLL: 2.23; for TNPDLIIVCAQSSQSLWNRLSQLL: 1.65.
Consider TNPDLIIVCAQSSQSLWNRLSELL, for which the protein stability index came out at 1.91.
Under TNPDLIIVCAQSSQSLWNRLSSLL stands 2.36; under TNPDLIIVCAQSSQSLWNRLRVLL, 2; under TNPDLIIVCAQSSQSLWNRLVVLL, 2.88.
Consider TNPDLIIVCAQSSQSLWNRLHVLL, for which the protein stability index was found to be 2.52.
The same measure for TNPDLIIVCAQSSQSLWNRLCVLL: 2.21; for TNPDLIIVCAQSSQSLWNRLYVLL: 3.25; for TNPDLIIVCAQSSQSLWNRLGVLL: 3.14.
Under TNPDLIIVCAQSSQSLWNRLFVLL stands 3.03.
Regarding TNPDLIIVCAQSSQSLWNRLTVLL, the protein stability index turned out to be 3.07.
Under TNPDLIIVCAQSSQNLWNRLSVLL stands 3.11; under TNPDLIIVCAQSSQTLWNRLSVLL, 1.44.
As to TNPDLIIVCAQSSQWLWNRLSVLL, the protein stability index worked out at 1.76.
Under TNPDLIIVCAQSSQELWNRLSVLL stands 2.58.
The same measure for TNPDLIIVCAQSSQPLWNRLSVLL: 3.51; for TNPDLIIVCAQSSQQLWNRLSVLL: 2.12; for TNPDLIIVCAQSSQKLWNRLSVLL: 3.11.
As for TNPDLIIVCAQSSQFLWNRLSVLL, the protein stability index was found to be 4.58.
The same measure for TNPDLIIVCAQSSESLWNRLSVLL: 1.6; for TNPDLIIVCAQSSASLWNRLSVLL: 3.98.
Under TNPDLIIVCAQSSYSLWNRLSVLL stands 3.2.
The same measure for TNPDLIIVCAQSSQSLWNRLSVAL: 1.84.
In the case of TNPDLIIVCAQSSQSLWNRLSVWL, the protein stability index stood at 2.85.
The same measure for TNPDLIIVCAQSSQSLWNRLSVNL: 3.27; for TNPDLIIVCAQSSQSLWNRLSVHL: 3.59; for TNPDLIIVCAQSSQSLWNRLSVKL: 1.99.
Take TNPDLIIVCAQSSQSLWNRLSVDL: the protein stability index is 1.73.
Under TNPDLIIVCAQSSQSLWNRLSVFL stands 2.33; under TNPDLIIVCAQSSQSLWNRLSVIL, 2.27; under TNPDLIIVCAQSSQSLWNRLSVCL, 3.62.

For the origin of these results see the supplement of paper PMC10567573.
